Consider 167 variants from the RNAGym collection of RNA variant scans (doi:10.7554/elife.90254).

The labels stand for the following.
B1: LINE1-full (parent)
chain: UACGUAGGUGGUUUUCCCCUGAUAGUGCUAAGGGGGCCUGGAAGUUUGGACUGGGCAGAGCUCAACACAGCGUGGCAAAGUGGCUGUGGCUAGACUGCCUCUCUGGAUUCCUCGUCACUCAGCAGGGCAUCUCUGAGAGAAAUGCC

The variants in this series derive from B1. The series can be described thus: self-cleavage, relative activity (ratio to wild type); higher = more cleavage; in vitro, sequencing; the parent is a self-cleaving ribozyme.
As for U81A A129U, the self-cleavage was determined as 2.57.

Turning to A79C U100C, the self-cleavage worked out at 2.76.

For the variant A78G G105A, the self-cleavage turned out to be 1.8.

As for A79U A107G, the self-cleavage stood at 2.26.

For the variant A79G U143A, the self-cleavage was found to be 1.52.

On to A77G U112A, for which the self-cleavage was found to be 2.32.

Turning to A77G U112C, the self-cleavage amounted to 2.18.

Take A79U C110A: the self-cleavage came out at 1.64.

In the case of A77G U102C, the self-cleavage was determined as 1.96.

For the variant A79U A141G, the self-cleavage came to 1.71.

In the case of A79G A138G, the self-cleavage worked out at 1.22.

For the variant A79G A138U, the self-cleavage is 0.85.

In the case of G80U U100C, the self-cleavage is 1.02.

Turning to A77G C98U, the self-cleavage worked out at 0.54.

A78G U104A: the self-cleavage came to 1.25.

On to A77G U132C, for which the self-cleavage was found to be 2.73.

A78U U96C: the self-cleavage came out at 0.17.

With A78C U91C, the self-cleavage came to 1.24.

For the variant A77U A117C, the self-cleavage is 1.76.

Regarding A77U A117G, the self-cleavage turned out to be 1.6.

On to A77U A117U, for which the self-cleavage came to 1.21.

With A79G A94U, the self-cleavage was 0.26.

Consider A77G C84U, for which the self-cleavage came to 0.25.

As to A79G G83A, the self-cleavage amounted to 1.03.

As for A77G U81C, the self-cleavage was found to be 2.1.

With A77G U81A, the self-cleavage amounted to 2.73.

For the variant A77G U119G, the self-cleavage was determined as 1.39.

As for A77G U119A, the self-cleavage came to 2.04.

As for A77G U87A, the self-cleavage was 0.09.

Turning to A77G U87C, the self-cleavage was 0.42.

As to A77G A142G, the self-cleavage came to 2.14.

Regarding A78G A129C, the self-cleavage was 1.96.

Regarding A78G A129G, the self-cleavage came out at 1.65.

Take C76U U104C: the self-cleavage was determined as 2.05.

In the case of A77G G106A, the self-cleavage was 2.

Regarding A77U A136G, the self-cleavage is 1.19.

Regarding A77U A136C, the self-cleavage was determined as 1.67.

A79C U87A: the self-cleavage was found to be 0.18.

Turning to G80A A121G, the self-cleavage stood at 2.16.

C76U U85C: the self-cleavage was determined as 0.36.

As for A79C U119C, the self-cleavage is 1.82.

With A77C U81C, the self-cleavage was 0.

In the case of A78U U85A, the self-cleavage is 0.11.

Turning to A78U A94G, the self-cleavage is 0.46.

For A78U A94U, the self-cleavage was found to be 0.3.

As to A77U A142G, the self-cleavage was found to be 1.46.

A78G A141G: the self-cleavage amounted to 1.38.

As for A78G A141U, the self-cleavage was 1.66.

A78U A129G: the self-cleavage was 2.49.

Consider A79U U91A, for which the self-cleavage turned out to be 0.58.

Consider A79U A140G, for which the self-cleavage stood at 1.85.

Consider A78U C99U, for which the self-cleavage was determined as 1.07.

Consider A77U U115A, for which the self-cleavage amounted to 0.82.

Regarding A78G A92U, the self-cleavage amounted to 0.64.

As for A78G A92G, the self-cleavage was found to be 0.11.

With A77C A94G, the self-cleavage turned out to be 0.

In the case of A78C A141G, the self-cleavage was determined as 1.74.

On to G80U U102A, for which the self-cleavage worked out at 1.34.

Regarding A79G C99U, the self-cleavage is 0.38.

Consider A79U U100G, for which the self-cleavage came out at 1.24.

Regarding A79U U100C, the self-cleavage turned out to be 2.92.

For A77U U112C, the self-cleavage is 1.29.

Regarding A79U U85A, the self-cleavage amounted to 0.07.

A79U U119C: the self-cleavage came out at 2.41.

With A77G A92U, the self-cleavage was 1.11.

Regarding A77G A92G, the self-cleavage was 0.2.

As for A78U U132C, the self-cleavage stood at 1.92.

As for A79G G89A, the self-cleavage turned out to be 0.03.

Consider A79G G89C, for which the self-cleavage was determined as 0.05.

On to G80A U81C, for which the self-cleavage worked out at 1.98.

For the variant A78G A138U, the self-cleavage came out at 1.

Consider A79G U132C, for which the self-cleavage came to 1.43.

For A79G U132A, the self-cleavage came to 1.25.

With U81A A136G, the self-cleavage came out at 1.9.

For the variant U81A A136U, the self-cleavage was 2.35.

As to A77U G83A, the self-cleavage was determined as 0.74.

Regarding G80A U91A, the self-cleavage was 0.76.

For A79G A129G, the self-cleavage is 1.62.

For the variant G80C U132C, the self-cleavage worked out at 1.84.

In the case of A77U A121U, the self-cleavage was determined as 1.27.

For G80A G144A, the self-cleavage was determined as 1.66.

As to C76U U132C, the self-cleavage was determined as 1.8.

On to A78U U108C, for which the self-cleavage worked out at 2.87.

As to A79U A138G, the self-cleavage was found to be 1.76.

Regarding A78U U100C, the self-cleavage amounted to 2.81.

Take A78U A138G: the self-cleavage was found to be 2.06.

A78U A138U: the self-cleavage worked out at 2.15.

As for G80C A107G, the self-cleavage was determined as 1.52.

A77G A129U: the self-cleavage was 2.

For the variant A77U C113A, the self-cleavage stood at 0.92.

A78C U100C: the self-cleavage was 2.41.

Take A78U U134A: the self-cleavage worked out at 2.08.

A78U U134C: the self-cleavage amounted to 2.05.

With A79G U81G, the self-cleavage was found to be 0.43.

With A77U U134G, the self-cleavage turned out to be 1.47.

A77G U109C: the self-cleavage is 1.51.

Take A77G U109A: the self-cleavage was determined as 1.75.

A79G U96G: the self-cleavage turned out to be 0.16.

As to A77U U100C, the self-cleavage is 1.58.

For the variant A77U U100A, the self-cleavage was determined as 0.91.

G80U: the self-cleavage is 1.36.

On to G80A, for which the self-cleavage is 1.93.

As to G80C, the self-cleavage turned out to be 1.4.

Turning to A78U U119A, the self-cleavage is 1.82.

A77G A121U: the self-cleavage turned out to be 2.74.

Regarding A79U A129G, the self-cleavage is 2.13.

Take A77U U119C: the self-cleavage was found to be 1.58.

A78G A124U: the self-cleavage is 1.45.

Consider A79C U108C, for which the self-cleavage was found to be 2.12.

For the variant A79G C98A, the self-cleavage amounted to 0.2.

For A79G C98U, the self-cleavage came out at 0.45.

With A77U A129C, the self-cleavage stood at 1.28.

As to A77U A129G, the self-cleavage was found to be 1.45.

As to A77U U96A, the self-cleavage is 0.06.

As for A79G C90A, the self-cleavage was 0.04.

A79G A141G: the self-cleavage came out at 1.35.

As to C76U A138G, the self-cleavage came out at 2.42.

As to G80U U109C, the self-cleavage came to 1.21.

A78U U109A: the self-cleavage is 1.84.

On to A77C C116U, for which the self-cleavage stood at 1.04.

As for A77U A94U, the self-cleavage amounted to 0.2.

Take A77G U96G: the self-cleavage is 0.16.

Turning to A77G U96C, the self-cleavage was determined as 0.18.

As for A77C C128U, the self-cleavage was 1.67.

Consider A78G G122A, for which the self-cleavage came to 0.65.

Turning to A77G U100C, the self-cleavage came out at 2.88.

In the case of A77C A78G, the self-cleavage was determined as 1.63.

On to A79G A142G, for which the self-cleavage amounted to 1.12.

C76U U143C: the self-cleavage came to 2.01.

As for A78C, the self-cleavage came to 2.41.

With A78G, the self-cleavage was determined as 1.23.

In the case of A78U, the self-cleavage was 1.92.

In the case of A78U A140C, the self-cleavage turned out to be 2.32.

Consider A78U A140G, for which the self-cleavage was found to be 1.96.

In the case of A77U A79U, the self-cleavage turned out to be 1.89.

As to G80C U108C, the self-cleavage came to 0.

In the case of A79G U87A, the self-cleavage came out at 0.06.

Regarding A79G U87C, the self-cleavage was found to be 0.17.

In the case of A77G G126A, the self-cleavage is 2.42.

In the case of C76U U108C, the self-cleavage amounted to 2.53.

For C76U C113A, the self-cleavage worked out at 2.15.

Consider A79G C128U, for which the self-cleavage was found to be 0.92.

On to A77U A141U, for which the self-cleavage came out at 1.07.

A77U A141G: the self-cleavage was determined as 1.4.

Take A77U A141C: the self-cleavage is 1.32.

Take A77C U115A: the self-cleavage was determined as 1.28.

For A77U U85A, the self-cleavage worked out at 0.07.

Consider C76U A129U, for which the self-cleavage turned out to be 1.57.

As for A78C A124G, the self-cleavage was determined as 0.94.

With G80U U87A, the self-cleavage came out at 0.08.

Consider G80U U87C, for which the self-cleavage stood at 0.2.

For A78G C95U, the self-cleavage was found to be 0.1.

Consider A79G C146U, for which the self-cleavage is 1.3.

Consider A79U C111G, for which the self-cleavage was determined as 2.75.

For the variant A79G U112C, the self-cleavage turned out to be 1.74.

A78U U104G: the self-cleavage was found to be 0.55.

In the case of A78G G89A, the self-cleavage was determined as 0.04.

Turning to A79U U104C, the self-cleavage came out at 2.47.

A79G G139U: the self-cleavage turned out to be 1.19.

For A79G U109G, the self-cleavage was 0.8.

Turning to A79G U85A, the self-cleavage stood at 0.08.

Turning to A79G U85C, the self-cleavage was 0.11.

Regarding A79G U85G, the self-cleavage stood at 0.11.

Regarding C76U G82A, the self-cleavage was 2.8.

Take A77G G82A: the self-cleavage is 0.85.

Regarding A77G G82U, the self-cleavage came to 2.49.

For the variant A79G A107U, the self-cleavage was 1.41.
